The numbers were not newly measured in US20170290929A1, “GRP78 TARGETED CONJUGATES” (University of Iowa Research Foundation, priority 2014, published 2017), which cites them from elsewhere.

Ends that are not written are not given here.

The series has as its target GRP78 (Homo sapiens, UniProt P11021). The following applies: cell free binding assays.

Sequence of GRP78 (P11021 19-654, species assumed): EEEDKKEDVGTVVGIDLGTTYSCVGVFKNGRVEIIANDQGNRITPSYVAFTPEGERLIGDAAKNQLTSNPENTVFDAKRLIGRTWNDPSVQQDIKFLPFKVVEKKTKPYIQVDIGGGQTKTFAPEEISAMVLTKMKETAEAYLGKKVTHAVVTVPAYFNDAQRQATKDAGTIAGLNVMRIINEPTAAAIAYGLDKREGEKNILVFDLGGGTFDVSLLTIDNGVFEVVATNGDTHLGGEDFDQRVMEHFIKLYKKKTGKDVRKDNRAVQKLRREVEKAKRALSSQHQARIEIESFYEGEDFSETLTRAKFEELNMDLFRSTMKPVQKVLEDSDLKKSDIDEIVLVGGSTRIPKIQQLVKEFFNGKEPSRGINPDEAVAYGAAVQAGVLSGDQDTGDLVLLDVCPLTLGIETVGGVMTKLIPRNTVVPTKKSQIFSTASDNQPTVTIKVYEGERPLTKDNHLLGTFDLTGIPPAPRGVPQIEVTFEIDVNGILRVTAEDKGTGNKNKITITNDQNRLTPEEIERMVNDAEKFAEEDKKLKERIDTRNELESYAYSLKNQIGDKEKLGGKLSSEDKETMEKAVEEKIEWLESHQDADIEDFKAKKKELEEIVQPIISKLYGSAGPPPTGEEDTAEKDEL

Take “PEP42: 13-mer cyclic peptide, amino acid sequence CTVALPGGYVRKC (SEQ ID NO:1) (also: cyclic)”: the “binding with GRP78” value was “shown to bind with GRP78”.
